This note sets out measurements from article PMC4248295.

The target of this data set is T1, MSL2 CXC domain (Drosophila melanogaster, UniProt P50534 520-570, C560G).
T1 sequence: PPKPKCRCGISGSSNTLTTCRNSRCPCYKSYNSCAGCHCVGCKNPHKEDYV
Briefly: crystal structure.

B1: (GC)6 (12 bp) (dsDNA)
DNA 1: GCGCGCGCGCGC
DNA 2: GCGCGCGCGCGC
As for B1, the binding result is reported as “binds”.
